# Ends that are not written are not given here.
# B1: human α-CGRP 19-37-COOH (peptide)
# peptide: SGGVVKNNFVPTNVGSKAF-OH
# notes: free C-terminal carboxyl, not amidated; also called 19-37 (not amidated at the C-terminus)
# B2: human α-CGRP 1-13-COOH (peptide)
# peptide: ACDTATCVTHRLA-OH
# modifications: ends and bridges not checked
# notes: not amidated
# B3: human α-CGRP 1-36-COOH (peptide)
# peptide: ACDTATCVTHRLAGLLSRSGGVVKNNFVPTNVGSKA-OH
# modifications: ends and bridges not checked
# notes: free C-terminal carboxyl, not amidated; also called 1-36 (not amidated at the C-terminus)
# B4: human α-CGRP 1-19-COOH (peptide)
# peptide: ACDTATCVTHRLAGLLSRS-OH
# modifications: ends and bridges not checked
# notes: not amidated
# Experiments:
# antibody G1 Fab fragment [1] = assay: Biacore competition: G1 Fab (50 nM) pre-incubated 1 h with 10 µM competing peptide, flowed over N-biotinylated human α-CGRP on SA chip
# antibody G1 Fab fragment, sequence (VH, as listed by the source, chain 1 of 2): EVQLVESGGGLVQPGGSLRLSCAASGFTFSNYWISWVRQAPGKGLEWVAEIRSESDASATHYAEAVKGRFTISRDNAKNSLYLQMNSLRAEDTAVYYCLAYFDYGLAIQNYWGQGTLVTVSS
# antibody G1 Fab fragment, sequence (VL, as listed by the source, chain 2 of 2): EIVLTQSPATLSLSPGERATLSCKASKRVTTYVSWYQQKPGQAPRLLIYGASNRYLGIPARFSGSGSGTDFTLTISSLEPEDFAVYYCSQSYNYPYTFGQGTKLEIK
# Excerpt: (§1) Y axis represents percentage of binding blocked by the presence of the competing peptide compared with the binding in the absence of the competing peptide.
# (§2) All these peptides are amidated at the C-terminus.
# antibody G1 Fab fragment [2] = assay: Biacore competition: G1 Fab (50 nM) pre-incubated with competing peptide, flowed over human α-CGRP on SA chip
# Excerpt: as §1, §2
# antibody G1 Fab fragment [3] = assay: Biacore, 50 nM G1 Fab with 10 µM peptide, over human α-CGRP on chip
# Excerpt: as §1, §2
Binder,% Binding Blocked (antibody G1 Fab fragment [1]) [%],binding result (antibody G1 Fab fragment [2]),% of binding blocked (antibody G1 Fab fragment [3]) [%]
B1,83.3,–,–
B2,–,no binding (tested: 10 µM),–
B3,40.6,–,~40
B4,–,no binding (tested: 10 µM),–

# Reference: patent US20230303674A1 (BETH ISRAEL DEACONESS MEDICAL CENTER, published 2023)
